Laboratory results published in patent US20010044102, “ASSAYS AND REAGENTS FOR IDENTIFYING MODULATORS OF CDC25-MEDIATED MITOTIC ACTIVATION” (published 2001).

B1: MB1 (A1) mutant oligo (dsDNA)
DNA 1: GGGCCTGCCAACTGCACCCCGCCCGGG
DNA 2: CCCGGGCGGGGTGCAGTTGGCAGGCCC
modifications: [11,12]
B2: MB3 (A3) mutant oligo (dsDNA)
DNA 1: ACTACAGACACCTGCCACCACACCCAA
DNA 2: TTGGGTGTGGTGGCAGGTGTCTGTAGT
modifications: [12]
B3: MB2 (A2) mutant oligo (dsDNA)
DNA 1: GCACAAGACAACTGCTTAGCAAACGGG
DNA 2: CCCGTTTGCTAAGCAGTTGTCTTGTGC
modifications: [11,12]

molecular target: GST-C92 Myc/Max heterodimer (UniProt P01106;P61244 P01106:363-454,P61244:1-160); assay: competition; mutant oligo did not compete; conditions: tags: GST on Myc C-terminal 92 aa (C92Myc)
Description: To test whether Myc/Max complexes could efficiently bind to the isolated sites, we performed electrophoretic mobility shift assays (EMSA) on each DNA fragment, confirming that they represent functional myc-binding elements in vitro. For instance, oligonucleotides, matching the Myc binding site from F1, F2 and from the second intron of the cdc25A (MB3) were also checked by EMSA. In this case, oligonucleotides corresponding to a wild type site and a single point mutant within the consensus sequence site were used to compete with the cdc25A sites. […] Similar results were obtained for MB2 and MB3.
For the identification of the Myc/Max binding sequences within the cdc25 genomic regions we utilized an affinity chromatography procedure, similar to immunoprecipitation procedures (Okamoto et al. (1994) EMBO J. 13:4816-4822). Briefly, cdc25 (A, B and C) genomic clones were digested with the Hinfl restriction endonuclease, end-labeled with p32 and further incubated with 10 ng of the GSTC92Myc/Max complexes in the binding buffer (Ayer et al. (1993) Cell 72:211-222), followed by incubation with 20 μl of glutathione sepharose for 30 min at 4° C. Isolated complexes were washed four times in the binding buffer, eluted with proteinase K digestion, treated with phenol/chloroform and further ethanol precipitated. Precipitated material was resuspended in 10-20 μl of TE and subjected to polyacrylamide gel (PAG) electrophoresis, followed by autoradiography. Total digests were treated the same way, except affinity chromatography on the glutathione beads, and run as a control on a gel on a parallel lane with the purified material. Electrophoretic mobility shift assays (EMSA) were done either with F1 or F2 fragments or with the synthetic oligonucleotides, corresponding to MB 1, MB2 or MB3 as described in the art, c. f., Ayer et al. (1993) Cell 72:211-222. Mutant oligonucleotides correspond to the same sequence as F1 and F2 with CATGTG changed to CAACTG (for A1 and A2) or CACGTG changed to CACCTG (for A3). CM-1 oligonucleotide has been described (Ayer et al. supra).

Chain of GST-C92 Myc/Max heterodimer (P01106 363-454, chain 1 of 2): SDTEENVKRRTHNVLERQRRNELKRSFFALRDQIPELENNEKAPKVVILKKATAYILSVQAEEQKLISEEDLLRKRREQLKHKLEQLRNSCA
Chain of GST-C92 Myc/Max heterodimer (P61244 whole entry, chain 2 of 2, the tested form may be a part): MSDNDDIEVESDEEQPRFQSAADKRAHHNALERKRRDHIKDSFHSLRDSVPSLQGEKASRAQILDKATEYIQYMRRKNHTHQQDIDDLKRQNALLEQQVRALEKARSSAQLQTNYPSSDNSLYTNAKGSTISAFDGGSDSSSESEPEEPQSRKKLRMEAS

Binding result, no binding:
B1
B2
B3
